In patent publication US6485904:

Columns and labels:
[1] = target: bovine plasminogen (bovine) (UniProt P06868); test: cell-based or functional assay
bovine plasminogen = bovine plasminogen (UniProt P06868)
[2] = target: T1, bovine plasminogen, P06868
T1 chain: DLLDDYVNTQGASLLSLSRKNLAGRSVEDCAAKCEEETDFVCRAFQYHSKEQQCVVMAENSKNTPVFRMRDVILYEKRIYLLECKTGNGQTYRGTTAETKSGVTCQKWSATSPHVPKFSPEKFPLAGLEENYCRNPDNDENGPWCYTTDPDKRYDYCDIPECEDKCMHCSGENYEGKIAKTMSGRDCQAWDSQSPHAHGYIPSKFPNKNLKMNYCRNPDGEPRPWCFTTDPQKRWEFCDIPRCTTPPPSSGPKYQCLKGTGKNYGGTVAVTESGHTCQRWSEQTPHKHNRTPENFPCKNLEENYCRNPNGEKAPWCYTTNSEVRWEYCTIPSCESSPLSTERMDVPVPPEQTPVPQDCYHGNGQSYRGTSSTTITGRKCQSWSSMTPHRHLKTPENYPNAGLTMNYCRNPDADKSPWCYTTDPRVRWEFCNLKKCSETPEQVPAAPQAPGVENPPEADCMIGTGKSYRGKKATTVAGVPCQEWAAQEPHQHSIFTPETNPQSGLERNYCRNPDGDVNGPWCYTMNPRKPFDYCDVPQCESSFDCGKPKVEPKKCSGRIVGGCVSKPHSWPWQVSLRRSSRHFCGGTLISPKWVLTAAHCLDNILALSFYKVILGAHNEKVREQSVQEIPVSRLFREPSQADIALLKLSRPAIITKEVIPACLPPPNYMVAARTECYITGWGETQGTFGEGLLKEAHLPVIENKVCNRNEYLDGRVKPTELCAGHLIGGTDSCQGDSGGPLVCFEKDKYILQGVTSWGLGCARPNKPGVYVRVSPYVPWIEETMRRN

Work on “signal peptide-deleted recombinant PauA of S. uberis strain 95-140 expressed from pER328 in E. coli strain Pz328 (enzyme)” yielded a Titer, chromogenic assay of whole cell pellet (titer (inverse of dilution factor)) [1] of 5.3.

For “purified native PauA (strain not stated where used)”, the “enzymatic activity, chromogenic assay titer” value (bovine plasminogen) was “titer=3256” and the specific activity (bovine plasminogen) was “the specific activity for native PauA was 5.9 chromogenic units/µg”.

“full-length recombinant PauA of S. uberis strain 95-140 expressed from pER326 in E. coli strain Pz326 (enzyme)” showed a Titer, chromogenic assay of whole cell pellet (titer (inverse of dilution factor)) [1] of 23.3.

“full-length recombinant PauA of S. uberis strain 95-140 expressed from pER330 in E. coli strain Pz330 (enzyme)” showed a Titer, chromogenic assay of whole cell pellet (titer (inverse of dilution factor)) [1] of 1.

B1: GST-PauA^28-286 fusion protein (pER356) (protein)
chain: GYDSDYYARYIDPDENKITFAINVDGFVEGSNQEILIRGIHHVLTNQNQKIVTKAELLDAIRHQMVLLQLDYSYELVDFAPDAQLLTRDRRLLFANRNFEESVSLEDTIQEYLLKGHVILRKRVEEPITHPTETANIEYKVQFATKDGEFHPLPIFVDYGEKHIGEKLTSDEFRKIAEEKLLQRYPDYMIDQKEYTIIKHNSLGQLPRYYSYPDDFSYEIQDRQRIMAKDPKSGKELGETQSIDNVFEKYLITKKSYKP
In the case of B1, the “enzymatic activity, chromogenic assay titer” value [2] is reported as “titer=3448” and the specific activity [2] is reported as “the specific activity of GST-PauA^28-286 was 1.4”.

B2: PauA from S. uberis strain c216 expressed by E. coli strain Pz318 (plasmid pER318) (protein)
chain: MKKWFLILMLLGIFGCATQPSKVAAITGYDSDYYARYIDPDENKITFAINVDGFVEGSNQEILIRGIHHVLTDQNQKIVTKAELLDAIRHQMVLLQLDYSYELVDFAPDAQLLTQDRRLLFANQNFEESVSLEDTIQEYLLKGHVILRKRVEEPITHPTETANIEYKVQFATKDGEFHPLPIFVDYGEKHIGEKLTSDEFRKIAEEKLLQLYPDYMIDQKEYTIIKHNSLGQLPRYYSYQDHFSYEIQDRQRIMAKDPKSGKELGETQSIDNVFEKYLITKKSYKP
B2 was tested, and the “zone of clearing on skim-milk plates with or without bovine plasminogen” value [2] was “their ability to express plasminogen-dependent PauA activity was confirmed by their inability to produce a zone of clearing following growth of individual colonies on plasminogen-free skim-milk plates”.

B3: PauA from S. uberis strain 95-140 expressed by E. coli strain Pz319 (plasmid pER319) (protein)
chain: MKKWFLILMLLGIFGCATQPSKVAAITGYDSDYYARYIDPDENKITFAINVDGFVEGSNQEILIRGIHHVLTNQNQKIVTKAELLDAIRHQMVLLQLDYSYELVDFAPDAQLLTRDRRLLFANRNFEESVSLEDTIQEYLLKGHVILRKRVEEPITHPTETANIEYKVQFATKDGEFHPLPIFVDYGEKHIGEKLTSDEFRKIAEEKLLQRYPDYMIDQKEYTIIKHNSLGQLPRYYSYPDDFSYEIQDRQRIMAKDPKSGKELGETQSIDNVFEKYLITKKSYKP
With B3 the “zone of clearing on skim-milk plates with or without bovine plasminogen” value [2] was “their ability to express plasminogen-dependent PauA activity was confirmed by their inability to produce a zone of clearing following growth of individual colonies on plasminogen-free skim-milk plates”.
